Test results reported in US20230366033A1 (University of Texas, published 2023).
Where no end group is shown, it is not given here. [ ]: non-standard residue; d: D form. pY = N[C@@H](Cc1ccc(OP(=O)(O)O)cc1)C(=O)O

B4: RPA70 N-terminal domain (residues 1-120), purified (other, UniProt P27694 1-120, looked up)
chain: MVGQLSEGAIAAIMQKGDTNIKPILQVINIRPITTGNSPPRYRLLMSDGLNTLSSFMLATQLNPLVEEEQLSSNCVCQIHRFIVNTLKDGRRVVILMELEVLKSAEAVGVKIGNPVPYNE
modifications: Atto488 label
notes: range 1-120; also called RPA70 N-terminal OB1 domain; RPA70N (1-120)

What was measured:
[1] = target: T1, GRB2-SH2 domain, purified, Atto488-labelled (UniProt P62993 60-152, limits assumed, Atto488 label); assay: MST, 100 nM Atto488-labelled GRB2-SH2 domain, peptide titrated
T1 construct: domain: SH2; Individual GRB2 domains generated as described before (Ahmed et al., 2010)

[2] = target: T2, Human MRE11 core (residues 1-411), bacterially expressed and purified (human, UniProt P49959 1-411); assay: GST pull-down of bacterially expressed, purified human MRE11, western blot [panel C]
T2 construct: range 1-411; the only purified MRE11 described is the 1-411 core; also called human MRE11 (residue 1-411); bacterially purified MRE11
T2 sequence (looked up): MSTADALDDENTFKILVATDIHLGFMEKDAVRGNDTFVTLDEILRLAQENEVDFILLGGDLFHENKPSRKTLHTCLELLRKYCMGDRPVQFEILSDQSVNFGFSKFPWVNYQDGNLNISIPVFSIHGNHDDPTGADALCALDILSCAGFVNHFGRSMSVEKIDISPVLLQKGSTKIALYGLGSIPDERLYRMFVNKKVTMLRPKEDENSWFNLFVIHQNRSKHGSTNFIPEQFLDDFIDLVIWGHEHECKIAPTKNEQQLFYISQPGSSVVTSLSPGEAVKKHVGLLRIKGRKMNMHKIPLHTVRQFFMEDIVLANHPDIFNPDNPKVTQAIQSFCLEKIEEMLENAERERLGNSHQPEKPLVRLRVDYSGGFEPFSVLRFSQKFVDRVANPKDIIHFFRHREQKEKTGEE

[3] = target: T3, GRB2 (growth factor receptor-bound protein 2), wild-type, full-length, bacterially expressed and purified (UniProt P62993 1-217, Atto488 label where used as the labelled partner in MST); assay: MST, 50 nM Atto488-labelled RPA70 N-terminal domain (1-120), GRB2 titrated [panel D]
T3 construct: domain: full-length; also called WTGRB2; non-ubiquitinated GRB2

[4] = target: T3, GRB2 (growth factor receptor-bound …); assay: MST with the Y111 phosphorylated MRE11 peptide
[5] = target: T1, GRB2-SH2 domain, purified, …; assay: MST with the Y111 phosphorylated MRE11 peptide
[6] = target: T4, NBS1, endogenous, in HEK293T cell extracts (UniProt O60934 1-754); assay: Flag-M2 immunoprecipitation from HEK293T cells, unperturbed or 5 Gy IR, western blot
T4 sequence (looked up): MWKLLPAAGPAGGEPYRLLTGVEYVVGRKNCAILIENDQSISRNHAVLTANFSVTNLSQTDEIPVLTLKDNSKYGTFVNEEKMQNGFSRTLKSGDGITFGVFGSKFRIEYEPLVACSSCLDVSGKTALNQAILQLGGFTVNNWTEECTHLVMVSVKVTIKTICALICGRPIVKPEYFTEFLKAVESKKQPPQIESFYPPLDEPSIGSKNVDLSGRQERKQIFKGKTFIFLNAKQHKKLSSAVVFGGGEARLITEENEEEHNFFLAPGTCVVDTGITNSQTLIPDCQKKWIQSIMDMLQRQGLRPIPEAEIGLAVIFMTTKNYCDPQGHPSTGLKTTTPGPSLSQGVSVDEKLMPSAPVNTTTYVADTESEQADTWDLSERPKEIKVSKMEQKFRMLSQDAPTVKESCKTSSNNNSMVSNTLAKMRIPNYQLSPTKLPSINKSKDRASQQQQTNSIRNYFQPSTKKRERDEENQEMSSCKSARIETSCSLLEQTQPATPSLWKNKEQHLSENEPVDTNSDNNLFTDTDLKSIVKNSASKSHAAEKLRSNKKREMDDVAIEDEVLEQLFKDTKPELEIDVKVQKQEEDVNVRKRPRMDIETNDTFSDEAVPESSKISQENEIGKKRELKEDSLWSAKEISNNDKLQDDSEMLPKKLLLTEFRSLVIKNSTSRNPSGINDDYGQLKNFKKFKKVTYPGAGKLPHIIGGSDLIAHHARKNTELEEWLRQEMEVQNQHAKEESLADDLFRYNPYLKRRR

[7] = target: T5, RPA70, endogenous, in HEK293T cell extracts (UniProt P27694 1-616); assay: GST pull-down from HEK293T cell extracts, western blot [panel B]
T5 construct: also called RPA1

[8] = target: T6, Flag-RAD50 expressed in HEK293T cells (UniProt Q92878 1-1312, limits assumed); assay: Flag-M2 immunoprecipitation from HEK293T cells co-transfected with RFP-GRB2, western blot [panel E]
T6 construct: not shown: Flag tag
T6 sequence (looked up): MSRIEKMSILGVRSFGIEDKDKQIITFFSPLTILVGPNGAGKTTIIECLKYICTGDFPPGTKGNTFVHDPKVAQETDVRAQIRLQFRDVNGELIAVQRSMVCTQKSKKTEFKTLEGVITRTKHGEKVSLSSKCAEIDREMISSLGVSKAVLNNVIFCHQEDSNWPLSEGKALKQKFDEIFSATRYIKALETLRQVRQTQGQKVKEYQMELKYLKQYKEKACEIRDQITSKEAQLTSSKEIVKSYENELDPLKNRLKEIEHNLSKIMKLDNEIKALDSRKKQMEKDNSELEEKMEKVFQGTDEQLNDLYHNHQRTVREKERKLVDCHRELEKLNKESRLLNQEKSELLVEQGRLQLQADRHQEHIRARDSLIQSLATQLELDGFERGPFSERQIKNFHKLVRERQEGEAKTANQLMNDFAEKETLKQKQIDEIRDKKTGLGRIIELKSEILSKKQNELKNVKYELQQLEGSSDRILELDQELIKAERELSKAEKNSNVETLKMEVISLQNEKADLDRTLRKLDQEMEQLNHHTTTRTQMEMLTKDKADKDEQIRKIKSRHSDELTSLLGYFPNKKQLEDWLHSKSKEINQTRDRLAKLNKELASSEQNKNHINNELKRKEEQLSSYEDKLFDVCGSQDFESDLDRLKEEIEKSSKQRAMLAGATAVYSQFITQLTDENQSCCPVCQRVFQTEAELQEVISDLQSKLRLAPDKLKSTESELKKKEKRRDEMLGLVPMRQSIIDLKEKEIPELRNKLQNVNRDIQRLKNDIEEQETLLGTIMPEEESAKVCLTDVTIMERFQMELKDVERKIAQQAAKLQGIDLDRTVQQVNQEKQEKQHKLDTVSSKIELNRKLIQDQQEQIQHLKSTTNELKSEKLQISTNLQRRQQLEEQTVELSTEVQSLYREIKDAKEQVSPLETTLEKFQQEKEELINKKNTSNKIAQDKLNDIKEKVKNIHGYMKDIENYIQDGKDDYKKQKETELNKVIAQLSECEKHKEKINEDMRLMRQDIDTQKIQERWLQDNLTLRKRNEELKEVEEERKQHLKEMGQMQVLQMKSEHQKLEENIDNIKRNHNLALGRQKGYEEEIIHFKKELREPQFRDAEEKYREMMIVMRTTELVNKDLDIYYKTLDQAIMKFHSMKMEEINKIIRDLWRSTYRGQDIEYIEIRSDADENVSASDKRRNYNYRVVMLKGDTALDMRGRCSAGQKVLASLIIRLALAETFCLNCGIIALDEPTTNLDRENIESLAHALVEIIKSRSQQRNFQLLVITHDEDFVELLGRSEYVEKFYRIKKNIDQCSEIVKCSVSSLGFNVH

[9] = target: T7, Flag-tagged POLQ (polymerase theta) overexpressed in HEK293T cells (UniProt O75417 1-2590, limits assumed); assay: Flag immunoprecipitation from HEK293T cells with or without 5 Gy IR, western blot [panel C]
T7 construct: also called Flag-POLQ; not shown: Flag tag

[10] = target: B4; assay: MST, 50 nM Atto488-labelled RPA70 N-terminal domain (1-120), peptide titrated [panel D]
[11] = target: T8, GRB2 K109R mutant, bacterially expressed and purified (UniProt P62993 1-217, Atto488 label in MST); assay: MST, 100 nM Atto488-labelled K109R GRB2, peptide titrated
T8 construct: domain: full-length; also called K109RGRB2; K109R GRB2 mutant

[12] = target: T1, GRB2-SH2 domain, purified, …; assay: MST; 100 nM Atto488-labelled GRB2-SH2 domain, peptide titrated; unphosphorylated MRE11 peptide

T7 sequence (O75417 whole entry): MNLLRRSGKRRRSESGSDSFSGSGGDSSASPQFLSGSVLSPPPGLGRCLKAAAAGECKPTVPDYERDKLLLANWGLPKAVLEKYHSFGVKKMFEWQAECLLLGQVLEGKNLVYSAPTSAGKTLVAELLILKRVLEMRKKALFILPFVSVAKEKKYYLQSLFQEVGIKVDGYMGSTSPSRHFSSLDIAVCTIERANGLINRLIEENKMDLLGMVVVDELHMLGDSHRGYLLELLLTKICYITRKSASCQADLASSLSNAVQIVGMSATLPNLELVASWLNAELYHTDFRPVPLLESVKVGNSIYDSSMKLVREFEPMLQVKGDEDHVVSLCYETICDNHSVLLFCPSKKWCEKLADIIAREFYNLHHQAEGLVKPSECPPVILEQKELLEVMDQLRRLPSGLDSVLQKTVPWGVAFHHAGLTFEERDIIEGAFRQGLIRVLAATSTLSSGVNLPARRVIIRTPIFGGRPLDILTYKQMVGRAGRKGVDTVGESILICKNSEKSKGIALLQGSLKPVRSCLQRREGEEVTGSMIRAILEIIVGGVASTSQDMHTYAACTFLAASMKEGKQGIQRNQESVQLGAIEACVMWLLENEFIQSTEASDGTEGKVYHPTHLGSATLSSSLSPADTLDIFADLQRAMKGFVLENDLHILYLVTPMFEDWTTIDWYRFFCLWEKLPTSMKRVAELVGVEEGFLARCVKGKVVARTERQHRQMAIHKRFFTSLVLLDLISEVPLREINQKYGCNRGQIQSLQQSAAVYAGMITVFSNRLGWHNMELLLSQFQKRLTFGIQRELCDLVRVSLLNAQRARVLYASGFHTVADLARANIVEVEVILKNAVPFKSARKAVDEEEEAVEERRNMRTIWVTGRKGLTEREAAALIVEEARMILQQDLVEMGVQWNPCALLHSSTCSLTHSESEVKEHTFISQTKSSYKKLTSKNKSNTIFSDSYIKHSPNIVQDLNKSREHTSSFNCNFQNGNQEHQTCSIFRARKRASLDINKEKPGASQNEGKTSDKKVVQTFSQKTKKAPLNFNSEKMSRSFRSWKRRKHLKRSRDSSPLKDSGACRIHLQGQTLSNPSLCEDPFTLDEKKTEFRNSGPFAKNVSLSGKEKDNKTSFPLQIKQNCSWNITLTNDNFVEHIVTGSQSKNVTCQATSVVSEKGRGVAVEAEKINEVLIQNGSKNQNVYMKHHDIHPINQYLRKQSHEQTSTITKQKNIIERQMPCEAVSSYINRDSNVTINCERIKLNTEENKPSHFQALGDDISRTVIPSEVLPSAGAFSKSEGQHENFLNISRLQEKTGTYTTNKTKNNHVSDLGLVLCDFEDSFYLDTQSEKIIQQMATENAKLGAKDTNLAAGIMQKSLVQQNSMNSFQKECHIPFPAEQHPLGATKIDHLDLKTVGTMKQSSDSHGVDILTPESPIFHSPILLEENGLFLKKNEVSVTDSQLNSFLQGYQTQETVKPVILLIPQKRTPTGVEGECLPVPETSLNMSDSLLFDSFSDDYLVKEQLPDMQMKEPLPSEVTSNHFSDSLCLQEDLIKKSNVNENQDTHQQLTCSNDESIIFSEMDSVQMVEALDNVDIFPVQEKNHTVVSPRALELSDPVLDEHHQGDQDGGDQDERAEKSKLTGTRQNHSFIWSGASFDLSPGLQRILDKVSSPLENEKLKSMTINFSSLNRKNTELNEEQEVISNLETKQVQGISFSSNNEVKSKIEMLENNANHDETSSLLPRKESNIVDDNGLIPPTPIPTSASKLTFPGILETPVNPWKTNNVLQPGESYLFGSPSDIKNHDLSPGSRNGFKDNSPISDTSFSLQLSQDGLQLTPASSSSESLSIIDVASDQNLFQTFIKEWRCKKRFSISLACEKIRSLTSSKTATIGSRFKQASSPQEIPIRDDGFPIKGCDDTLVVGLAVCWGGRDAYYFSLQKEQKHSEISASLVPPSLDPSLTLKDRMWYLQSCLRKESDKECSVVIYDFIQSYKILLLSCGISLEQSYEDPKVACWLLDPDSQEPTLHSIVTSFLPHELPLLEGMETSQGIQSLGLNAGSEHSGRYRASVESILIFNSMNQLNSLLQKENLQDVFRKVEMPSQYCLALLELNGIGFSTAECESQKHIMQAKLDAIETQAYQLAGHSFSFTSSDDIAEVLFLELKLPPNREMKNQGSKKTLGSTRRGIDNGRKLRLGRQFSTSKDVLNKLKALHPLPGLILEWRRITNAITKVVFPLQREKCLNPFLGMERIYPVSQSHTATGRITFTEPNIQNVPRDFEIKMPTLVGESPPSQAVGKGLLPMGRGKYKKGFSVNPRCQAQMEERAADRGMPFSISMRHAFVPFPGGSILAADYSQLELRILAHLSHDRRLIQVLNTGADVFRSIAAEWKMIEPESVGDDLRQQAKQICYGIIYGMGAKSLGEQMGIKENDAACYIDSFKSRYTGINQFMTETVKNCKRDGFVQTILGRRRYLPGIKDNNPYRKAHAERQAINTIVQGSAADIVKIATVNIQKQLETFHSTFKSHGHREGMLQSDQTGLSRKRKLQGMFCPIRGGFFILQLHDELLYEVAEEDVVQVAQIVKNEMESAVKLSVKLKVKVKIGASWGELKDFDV

B1: Phosphorylated H2AX peptide PSGGKKATQA(pS)QEY (pS139 only) (peptide)
peptide: PSGGKKATQAXQEY
modifications: phosphoserine at position 11 (S139 of H2AX)
notes: Synthetic, from GenScript; also called pS139 H2AX
binding result [1]: no binding

B2: Phosphorylated H2AX peptide PSGGKKATQASQE(pY) (pY142 only) (peptide)
peptide: PSGGKKATQASQEX
modifications: phosphotyrosine at position 14 (Y142 of H2AX)
notes: Synthetic, from GenScript; also called pY142 H2AX
binding result [1]: no binding (tested: about 50 µM)

B3: GST-fused GRB2 N-terminal SH3 (nSH3) domain (other, UniProt P62993 1-58, looked up)
chain: MEAIAKYDFKATADDELSFKRGDILKVLNEECDQNWYKAELNGKDGFIPKNYIEMKPH
notes: domain: N-terminal SH3 (nSH3); not shown: glutathione S-transferase (GST)
binding result [2]: no binding

B4
Kd [3]: 1.6 µM

B5: Tyrosine-phosphorylated MRE11 peptide WVNpYQDGNLN (peptide)
peptide: WVN[pY]QDGNLN
modifications: not fully specified
notes: also called Y111 phosphorylated MRE11 peptide; tyrosine phosphorylated peptide
Kd [4]: 19.7 µM
Kd [5]: 46.8 µM

B6: Flag-MRE11 expressed in HEK293T cells (enzyme, UniProt P49959 1-708, looked up)
chain: MSTADALDDENTFKILVATDIHLGFMEKDAVRGNDTFVTLDEILRLAQENEVDFILLGGDLFHENKPSRKTLHTCLELLRKYCMGDRPVQFEILSDQSVNFGFSKFPWVNYQDGNLNISIPVFSIHGNHDDPTGADALCALDILSCAGFVNHFGRSMSVEKIDISPVLLQKGSTKIALYGLGSIPDERLYRMFVNKKVTMLRPKEDENSWFNLFVIHQNRSKHGSTNFIPEQFLDDFIDLVIWGHEHECKIAPTKNEQQLFYISQPGSSVVTSLSPGEAVKKHVGLLRIKGRKMNMHKIPLHTVRQFFMEDIVLANHPDIFNPDNPKVTQAIQSFCLEKIEEMLENAERERLGNSHQPEKPLVRLRVDYSGGFEPFSVLRFSQKFVDRVANPKDIIHFFRHREQKEKTGEEINFGKLITKPSEGTTLRVEDLVKQYFQTAEKNVQLSLLTERGMGEAVQEFVDKEEKDAIEELVKYQLEKTQRFLKERHIDALEDKIDEEVRRFRETRQKNTNEEDDEVREAMTRARALRSQSEESASAFSADDLMSIDLAEQMANDSDDSISAATNKGRGRGRGRRGGRGQNSASRGGSQRGRADTGLETSTRSRNSKTAVSASRNMSIIDAFKSTRQQPSRNVTTKNYSEVIEVDESDVEEDIFPTTSKTDQRWSSTSSSKIMSQSQVSKGVDFESSEDDDDDPFMNTSSLRRNRR
notes: not shown: Flag tag
binding result [6]: binds

B7: GST-fused GRB2 C-terminal SH3 (cSH3) domain (other, UniProt P62993 156-217, looked up)
chain: QQPTYVQALFDFDPQEDGELGFRRGDFIHVMDNSDPNWWKGACHGQTGMFPRNYVTPVNRNV
notes: domain: C-terminal (cSH3); not shown: glutathione S-transferase (GST)
binding result [7]: no binding

B8: MRE11, endogenous, in extracts of human cell lines (HEK293T, HeLa, U2OS) (enzyme, UniProt P49959 2-708, looked up)
chain: STADALDDENTFKILVATDIHLGFMEKDAVRGNDTFVTLDEILRLAQENEVDFILLGGDLFHENKPSRKTLHTCLELLRKYCMGDRPVQFEILSDQSVNFGFSKFPWVNYQDGNLNISIPVFSIHGNHDDPTGADALCALDILSCAGFVNHFGRSMSVEKIDISPVLLQKGSTKIALYGLGSIPDERLYRMFVNKKVTMLRPKEDENSWFNLFVIHQNRSKHGSTNFIPEQFLDDFIDLVIWGHEHECKIAPTKNEQQLFYISQPGSSVVTSLSPGEAVKKHVGLLRIKGRKMNMHKIPLHTVRQFFMEDIVLANHPDIFNPDNPKVTQAIQSFCLEKIEEMLENAERERLGNSHQPEKPLVRLRVDYSGGFEPFSVLRFSQKFVDRVANPKDIIHFFRHREQKEKTGEEINFGKLITKPSEGTTLRVEDLVKQYFQTAEKNVQLSLLTERGMGEAVQEFVDKEEKDAIEELVKYQLEKTQRFLKERHIDALEDKIDEEVRRFRETRQKNTNEEDDEVREAMTRARALRSQSEESASAFSADDLMSIDLAEQMANDSDDSISAATNKGRGRGRGRRGGRGQNSASRGGSQRGRADTGLETSTRSRNSKTAVSASRNMSIIDAFKSTRQQPSRNVTTKNYSEVIEVDESDVEEDIFPTTSKTDQRWSSTSSSKIMSQSQVSKGVDFESSEDDDDDPFMNTSSLRRNRR
binding result [8]: binds
binding result [9]: binds

B9: GRB2 OB1 peptide KYDFKATADDELSFKRG (peptide)
peptide: KYDFKATADDELSFKRG
notes: Synthetic, from GenScript; also called GRB2-derived OB1 peptide
Kd [10]: 2.1 µM

WVNYQDGNLN [MRE11 peptide WVNYQDGNLN]
Kd [11]: > 200 µM
Kd [12]: 33 µM
